From article PMC4608562, “Carbohydrate Recognition Specificity of Trans-sialidase Lectin Domain from Trypanosoma congolense” (PLoS Neglected Tropical Diseases, 2015)
Where “and” joins values, the source holds several entries; their conditions need not be identical. Identical values can stand only once.

Tests used:
[1] = target: T1, TconTS2-LD (Trypanosoma congolense, UniProt W0YLD6); experiment: STD NMR; assay type: binding; conditions: 5.5 uM protein, 3.45 mM ligand; deuterated phosphate pD 7.4; site distinct from mannotriose site
T1 construct: gene TS2; C-terminal lectin-like domain without the CD-LD linker alpha-helix; N-terminal His-MBP and C-terminal SNAP-Strep tags kept; expressed in E. coli Rosetta pLacI

[2] = target: TconTS1 enzymatically deglycosylated with EndoHf (native conditions) (Trypanosoma congolense); experiment: SEC; Superdex 200 10/300 GL, 10 mM phosphate buffer pH 7.4, 4°C, 0.5 mL/min, 100 to 300 μg TconTS in 500 μL, detection at 280 nm; column calibrated with gel filtration markers 29,000-700,000 Da; monomer, dimer and oligomer peaks
[3] = target: recombinant TconTS1 (Trypanosoma congolense trans-sialidase 1; CD, α-helix and LD) (Trypanosoma congolense); experiment: as above
[4] = target: recombinant TconTS2 (Trypanosoma congolense trans-sialidase 2; CD, α-helix and LD) (Trypanosoma congolense); experiment: as above

## OC[C@H]1O[C@@H](O[C@H]2[C@H](O)[C@@H](O)[C@@H](O)O[C@@H]2CO)[C@H](O)[C@@H](O)[C@H]1O [lactose, β-D-galactosyl-(1–4)-α-D-glucose]
[1]
  STD NMR: Binding of lactose to TconTS2-LD was also clearly observed (Fig 3B)

## TconTS1 enzymatically deglycosylated with EndoHf (native conditions) (enzyme)
[2]
  stoichiometry N: 2

## recombinant TconTS1 (Trypanosoma congolense trans-sialidase 1; CD, α-helix and LD) (enzyme)
[3]
  ratio of monomer to dimer (monomer:dimer): 1
  stoichiometry N: 2 and 4

## recombinant TconTS2 (Trypanosoma congolense trans-sialidase 2; CD, α-helix and LD) (enzyme)
[4]
  stoichiometry N: 2
